Results from paper PMC3035456.
Where two headings read alike, the source gives them in different places.

Legend:
TIAR12 [1] = target: T1, TIAR12 (UniProt Q01085 1-181); experiment: size exclusion chromatography
T1 sequence: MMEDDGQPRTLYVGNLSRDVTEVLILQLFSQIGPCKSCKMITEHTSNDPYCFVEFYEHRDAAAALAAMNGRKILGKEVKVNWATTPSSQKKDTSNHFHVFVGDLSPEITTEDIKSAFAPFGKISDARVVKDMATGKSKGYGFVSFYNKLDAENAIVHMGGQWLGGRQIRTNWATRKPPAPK

HuR12 = HuR12 (UniProt Q15717 18-184); experiment: SPR
TIAR12 [2] = target: T1, TIAR12; experiment: SPR
TIAR123 = target: T2, TIAR123 (UniProt Q01085 1-283); experiment: SPR
T2 sequence: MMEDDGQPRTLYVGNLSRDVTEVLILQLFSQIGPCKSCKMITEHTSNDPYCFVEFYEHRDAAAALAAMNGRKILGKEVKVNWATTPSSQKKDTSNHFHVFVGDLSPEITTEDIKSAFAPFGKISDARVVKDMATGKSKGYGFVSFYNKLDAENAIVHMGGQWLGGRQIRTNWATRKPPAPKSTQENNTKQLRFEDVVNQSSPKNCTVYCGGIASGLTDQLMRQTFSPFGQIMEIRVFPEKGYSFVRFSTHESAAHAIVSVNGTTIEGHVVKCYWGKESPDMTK

HuR123 = HuR123 (UniProt Q15717 1-306); experiment: SPR
TIAR12 [3] = target: T1, TIAR12; experiment: SPR; remark: listed apart in the source

HuR12, sequence (Q15717 18-184): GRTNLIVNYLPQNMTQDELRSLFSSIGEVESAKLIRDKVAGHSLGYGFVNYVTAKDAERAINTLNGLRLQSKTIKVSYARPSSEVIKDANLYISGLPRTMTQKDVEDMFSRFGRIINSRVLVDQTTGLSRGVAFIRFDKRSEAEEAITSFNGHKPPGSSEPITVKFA
HuR123, sequence (Q15717 1-306): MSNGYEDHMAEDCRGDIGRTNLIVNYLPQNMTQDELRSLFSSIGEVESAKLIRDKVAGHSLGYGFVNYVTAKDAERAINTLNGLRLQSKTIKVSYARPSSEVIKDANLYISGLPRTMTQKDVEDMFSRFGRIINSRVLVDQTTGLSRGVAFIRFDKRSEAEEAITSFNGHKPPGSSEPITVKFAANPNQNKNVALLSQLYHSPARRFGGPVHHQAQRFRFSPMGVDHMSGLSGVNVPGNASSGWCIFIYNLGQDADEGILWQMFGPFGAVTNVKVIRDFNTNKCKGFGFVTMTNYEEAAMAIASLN

UUUUUUUUUUUUU (ssRNA) [U-rich RNA 13-mer (solution)]
binding result (TIAR12 [1]): binds

UUUUUUUU (ssRNA) [U-rich RNA 8-mer]
Kd (HuR12): 4700 ± 116 nM

UUUUUUUUUUUUUUUUUUUU (ssDNA, all deoxyuridine (2'-deoxy)) [U-rich DNA 20-mer]
Kd (HuR12): 20600 ± 1570 nM | Kd (TIAR12 [2]): 21.7 ± 0.38 nM

UUUUUUUUUUUUU (ssRNA) [U-rich RNA 13-mer]
Kd (HuR12): 195 ± 6.3 nM

GGGGGGUAUUUAUUAUUUAUUUAGGGGG (ssRNA) [AU-rich RNA 28-mer (TNF-alpha ARE)]
Kd (HuR12): 506 ± 13.1 nM | Kd (TIAR123): 14.1 ± 0.22 nM | Kd (HuR123): 0.2 ± 0.007 nM | Kd (TIAR12 [2]): 42.5 ± 0.63 nM

TTTTTTTTTTTTTTTTTTTT (ssDNA) [T-rich DNA 20-mer]
Kd (TIAR12 [3]): 3.81 ± 0.74 nM | Kd (HuR12): 2640 ± 82.3 nM

UUUUUUUUUUUUUUUUU (ssRNA) [U-rich RNA 17-mer]
Kd (HuR12): 40 ± 24 nM

GGGGGGUUUUUUUUUUUUUUUUUGGGGG (ssRNA) [U-rich RNA 28-mer]
Kd (HuR123): 0.05 ± 0.001 nM
